One substance from PMC12310653 can be followed below.

The assay concerns the target cathepsin L. The assay is described as follows: enzyme inhibition kinetics (Morrison equation for tight-binding inhibition); active cathepsin L (6 nM) incubated with varying concentrations of Amblyostatin-1 in 50 mM sodium acetate pH 5.5 at 37°C for 10 min; substrate Z-Phe-Arg-AMC; fluorescence read at 30°C over 15 min; residual Vmax fitted.

For the substance “recombinant Amblyostatin-1 (natural protein)”, the Ki came out at 0.697 nM.
